The target in assay [1] is endophilin SH3 (SH3G2_HUMAN), Q99962. Description: SPOT array.
Assay [2] has as its target T1, amphyphisin SH3 (AMPH_HUMAN), P49418.
T1 chain: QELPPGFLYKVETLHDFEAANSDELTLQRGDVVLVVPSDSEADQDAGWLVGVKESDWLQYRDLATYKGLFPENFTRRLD
Briefly: SPOT array.

PRKAPRRPGPGMSG [Q92611 83-96]: the normalised SPOT signal, Boehringer light units (BLU); mean over the file's lines of this peptide in assay [1] came out at 221; in assay [2], 46.8.
On the same counts, the results for PRKYPNRPSKTPVH [P11161 323-336] are 57.5 and 109.
For PRKYPNRPSKTPLH [Q06889 258-271], the normalised SPOT signal, Boehringer light units (BLU); mean over the file's lines of this peptide was 51.5 in assay [1] and 79.9 in assay [2].
On the same counts, the results for ASNQPKRPPAAPEN [P48634 118-131] are 51 and 38.1.
For the molecule PRRGPPRPPGLPYP [AAH31882 46-60], the normalised SPOT signal, Boehringer light units (BLU); mean over the file's lines of this peptide in assay [1] came out at 7980; in assay [2], 1100.
On the same counts, the results for PRGVLPRPSRVLVL [Q9NYA1 7-20] are 508 and 1850.
The corresponding values for PSDLPKKPPKPEFG [Q96QH2 28-42] are 258 and 16.4.
On to PRPLPPRPPAAQPR [P58840 142-156], for which the normalised SPOT signal, Boehringer light units (BLU); mean over the file's lines of this peptide in assay [1] was 7560; in assay [2], 2770.
As to PSESLPRPRRPLPT [Q9P0U4 228-241], the normalised SPOT signal, Boehringer light units (BLU); mean over the file's lines of this peptide in assay [1] was determined as 405; in assay [2], 264.
For PSARPARPPRVRGP [O60342 30-44], the normalised SPOT signal, Boehringer light units (BLU); mean over the file's lines of this peptide in assay [1] was found to be 21500; in assay [2] it was 16100.
As to PREPPRRPAFLPVG [Q13387 310-323], the figures for the normalised SPOT signal, Boehringer light units (BLU); mean over the file's lines of this peptide in assay [1] and in assay [2] were 1100 and 32.1, respectively.
For PRPTPRRPRPRLAR [Q9GZW5 261-274], the normalised SPOT signal, Boehringer light units (BLU); mean over the file's lines of this peptide in assay [1] is 1950; in assay [2], 928.
The corresponding values for PRRPPPRPPSRLSM [Q9BVH8 778-792] are 32000 and 27600.
On the same counts, the results for PRKLPSRPPPHYPG [O75923 185-199] are 2340 and 640.
The corresponding values for PRPGPSRPPPVPAP [Q9Y2G0 18-32] are 1900 and 137.
As for PSAPPAKPPSTQRA [O60904 189-203], the normalised SPOT signal, Boehringer light units (BLU); mean over the file's lines of this peptide in assay [1] was 254; in assay [2], 53.9.
On the same counts, the results for PRAVPARPPTRPRF [Q8TE87 150-164] are 17600 and 6470.
On the same counts, the results for PREFPFKPPSIYMI [Q96T84 67-81] are 519 and 32.3.
PRAWPRRPRRDYSI [O43385 549-562]: the normalised SPOT signal, Boehringer light units (BLU); mean over the file's lines of this peptide in assay [1] worked out at 221; in assay [2], 1550.
Take PRPPPGKPPTRPGV [O94932 475-489]: the normalised SPOT signal, Boehringer light units (BLU); mean over the file's lines of this peptide in assay [1] was determined as 1540; in assay [2] it was 225.
The corresponding values for PRRRPGRPRKLPRL [Q9H4Z2 347-360] are 96 and 32.5.
For PSGPPARPSRSMWD [Q9NXK1 363-376], the normalised SPOT signal, Boehringer light units (BLU); mean over the file's lines of this peptide in assay [1] stood at 2740; in assay [2], 3350.
On the same counts, the results for PRSVFLRPQRNLES [Q9Y2L9 614-627] are 211 and 3830.
The corresponding values for PSFHIKRPAPRPLA [O60890 702-715] are 61.1 and 18.2.
On the same counts, the results for PRQPPSRPPRRPPW [Q99785 93-107] are 8300 and 6780.
With PSDHIKRPMNAFMV [O95416 4-17], the values for the normalised SPOT signal, Boehringer light units (BLU); mean over the file's lines of this peptide in assay [1] and in assay [2] were 85 and 16.2, respectively.
On the same counts, the results for PREGPGRPPLDGRD [Q9H8B2 127-141] are 58.8 and 47.3.
The corresponding values for PRVDPYRPVRLPMQ [Q93074 1800-1813] are 175 and 327.
Turning to ASLFPKRPALEPVR [Q9Y2X7 686-699], the normalised SPOT signal, Boehringer light units (BLU); mean over the file's lines of this peptide was 926 in assay [1] and 41.1 in assay [2].
The corresponding values for PRLRPMRPPPPPPA [Q9NXX8 675-689] are 4660 and 1860.
The corresponding values for PRTLPRRPYKVLLA [O75064 398-411] are 865 and 109.
On to ASPRLRRPKSPKLP [Q96DR7 104-117], for which the normalised SPOT signal, Boehringer light units (BLU); mean over the file's lines of this peptide in assay [1] worked out at 35; in assay [2] it was 110.
Take PRPLPPRPPAAQPP [P10323 331-345]: the normalised SPOT signal, Boehringer light units (BLU); mean over the file's lines of this peptide in assay [1] turned out to be 3120; in assay [2], 1540.
On the same counts, the results for PRPRPRRPRQLTRA [Q9HAM8 17-30] are 206 and 72.2.
PRPSPARPKKSEES [O94836 564-577]: the results for the normalised SPOT signal, Boehringer light units (BLU); mean over the file's lines of this peptide in assay [1] and in assay [2] were 265 and 101, respectively.
On the same counts, the results for PSGHIKRPMNAFMV [Q06945 55-68] are 75.8 and 47.9.
In the case of ASPSLERPEKGAGK [Q13601 2-15], the figures for the normalised SPOT signal, Boehringer light units (BLU); mean over the file's lines of this peptide in assay [1] and in assay [2] were 175 and 15, respectively.
As to PRQLLTRPHKAEDF [Q99973 2038-2051], the normalised SPOT signal, Boehringer light units (BLU); mean over the file's lines of this peptide in assay [1] is 198; in assay [2] it was 104.

The values above are taken from publication PMC314469, “Protein Interaction Networks by Proteome Peptide Scanning” (PLoS Biology, 2004).
